Experimental data from US20180346600A1 (AJOU UNIVERSITY INDUSTRY ACADEMIC COOPERATION FOUNDATION, published 2018).

Columns and labels:
[1] = target: T1, displayed FcCH3A, B239 (K392L/D399L), on yeast cell surface (human, UniProt P0DOX5 227-449 = IgG part); assay: flow cytometry of diploid yeast: MFI of Flag-tagged secreted FcCH3B held on displayed FcCH3A (anti-Flag mouse mAb and PE anti-mouse antibody), normalised to EW-RVT = 100 %
T1 construct: also called B239 CH3A chain (yeast)
T1 Fc: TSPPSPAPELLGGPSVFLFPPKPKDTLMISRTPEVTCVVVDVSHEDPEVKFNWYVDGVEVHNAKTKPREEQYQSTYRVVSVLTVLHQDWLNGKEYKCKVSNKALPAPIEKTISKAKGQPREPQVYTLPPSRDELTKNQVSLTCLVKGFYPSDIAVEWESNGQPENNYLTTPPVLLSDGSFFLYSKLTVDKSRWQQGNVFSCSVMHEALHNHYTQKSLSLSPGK
Excerpt: (§1) FACS was sequentially performed four times. […] Table 9 below summarizes the mutation pairs introduced into individual clones selected from the respective LibA2 and LibB2 libraries.

[2] = target: T2, displayed FcCH3A, B240 (K392S/K409R/D399L), on yeast cell surface (human, UniProt P0DOX5 227-449 = IgG part); assay: as above
T2 construct: also called B240 CH3A chain (yeast)
T2 Fc: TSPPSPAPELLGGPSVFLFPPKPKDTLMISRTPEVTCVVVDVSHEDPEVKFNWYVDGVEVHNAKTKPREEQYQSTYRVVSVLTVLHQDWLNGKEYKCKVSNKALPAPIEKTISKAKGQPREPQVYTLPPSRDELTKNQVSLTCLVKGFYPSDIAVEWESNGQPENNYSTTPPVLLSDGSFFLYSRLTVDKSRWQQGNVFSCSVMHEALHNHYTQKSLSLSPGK
Excerpt: as §1

[3] = target: T3, displayed FcCH3A, B256 (K392N/D399L), on yeast cell surface (human, UniProt P0DOX5 227-449 = IgG part); assay: as above
T3 construct: also called B256 CH3A chain (yeast)
T3 Fc: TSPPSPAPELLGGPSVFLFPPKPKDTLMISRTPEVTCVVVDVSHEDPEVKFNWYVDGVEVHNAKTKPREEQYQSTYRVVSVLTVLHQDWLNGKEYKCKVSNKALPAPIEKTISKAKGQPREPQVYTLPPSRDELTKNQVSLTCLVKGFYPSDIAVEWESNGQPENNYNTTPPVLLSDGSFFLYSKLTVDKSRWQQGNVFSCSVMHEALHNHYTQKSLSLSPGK
Excerpt: as §1

[4] = target: T4, Hole-Hole (displayed FcCH3A on yeast cell surface); assay: flow cytometry histogram (PE, FL2-H) of diploid yeast: Flag-tagged secreted FcCH3B held on displayed FcCH3A, anti-Flag mouse mAb and PE anti-mouse antibody
T4 construct: also called Hole-Hole (Genentech) CH3A chain (yeast), T366S/L368A/Y407V
T4 Fc: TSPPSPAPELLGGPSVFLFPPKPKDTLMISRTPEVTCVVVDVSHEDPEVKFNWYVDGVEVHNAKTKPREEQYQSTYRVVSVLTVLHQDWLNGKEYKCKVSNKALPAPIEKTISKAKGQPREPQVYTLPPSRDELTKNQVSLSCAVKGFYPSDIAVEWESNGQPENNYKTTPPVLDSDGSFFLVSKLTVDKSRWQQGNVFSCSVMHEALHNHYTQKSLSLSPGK
Procedure: Specifically, the diploid in which the expression of the heterodimeric heavy chain constant region was induced was reacted with an antibody recognizing flag-tag included in the secreted FcCH3B (anti-Flag mouse mAb, F3165) (Sigma-Aldrich) and an antibody conjugated with PE (phycoerythrin conjugated anti-mouse mAb, sc-3738) (Santa Cruz biotechnology), and a signal of PE was analyzed by flow cytometry.

B1: secreted FcCH3B, B239 (D399S/K392G/K409M), from yeast (other)
chain: TSPPSPAPELLGGPSVFLFPPKPKDTLMISRTPEVTCVVVDVSHEDPEVKFNWYVDGVEVHNAKTKPREEQYQSTYRVVSVLTVLHQDWLNGKEYKCKVSNKALPAPIEKTISKAKGQPREPQVYTLPPSRDELTKNQVSLTCLVKGFYPSDIAVEWESNGQPENNYGTTPPVLSSDGSFFLYSMLTVDKSRWQQGNVFSCSVMHEALHNHYTQKSLSLSPGK
notes: also called B239 CH3B chain (yeast); not shown: flag-tag
Does B1 bind [1]?
Result: binds

B2: secreted FcCH3B, B240 (D399G/K392G/K409M), from yeast (other)
chain: TSPPSPAPELLGGPSVFLFPPKPKDTLMISRTPEVTCVVVDVSHEDPEVKFNWYVDGVEVHNAKTKPREEQYQSTYRVVSVLTVLHQDWLNGKEYKCKVSNKALPAPIEKTISKAKGQPREPQVYTLPPSRDELTKNQVSLTCLVKGFYPSDIAVEWESNGQPENNYGTTPPVLGSDGSFFLYSMLTVDKSRWQQGNVFSCSVMHEALHNHYTQKSLSLSPGK
notes: also called B240 CH3B chain (yeast); not shown: flag-tag
Does B2 bind [2]?
Result: binds

B3: secreted FcCH3B, B256 (D399V/K392G/K409M), from yeast (other)
chain: TSPPSPAPELLGGPSVFLFPPKPKDTLMISRTPEVTCVVVDVSHEDPEVKFNWYVDGVEVHNAKTKPREEQYQSTYRVVSVLTVLHQDWLNGKEYKCKVSNKALPAPIEKTISKAKGQPREPQVYTLPPSRDELTKNQVSLTCLVKGFYPSDIAVEWESNGQPENNYGTTPPVLVSDGSFFLYSMLTVDKSRWQQGNVFSCSVMHEALHNHYTQKSLSLSPGK
notes: also called B256 CH3B chain (yeast); not shown: flag-tag
Does B3 bind [3]?
Result: binds

B4: Hole-Hole (secreted FcCH3B from yeast) (other)
secreted Fc chain (hinge-CH2-CH3B): TSPPSPAPELLGGPSVFLFPPKPKDTLMISRTPEVTCVVVDVSHEDPEVKFNWYVDGVEVHNAKTKPREEQYQSTYRVVSVLTVLHQDWLNGKEYKCKVSNKALPAPIEKTISKAKGQPREPQVYTLPPSRDELTKNQVSLSCAVKGFYPSDIAVEWESNGQPENNYKTTPPVLDSDGSFFLVSKLTVDKSRWQQGNVFSCSVMHEALHNHYTQKSLSLSPGK
notes: also called Hole-Hole (Genentech) CH3B chain (yeast), T366S/L368A/Y407V
Does B4 bind [4]?
Result: no binding
